Experimental data: paper PMC11436757, “BRCA2 stabilises RAD51 and DMC1 nucleoprotein filaments through a conserved interaction mode” (Nature Communications, 2024)
Where a chain is given by its changes, count along the chain named. In names and notes the source's numbering stands. Like-named read-outs stand apart in the source and are kept apart here. One block for each molecule: values may come before it. No end group written: not given here.

Columns and labels:
[1] = target: T1, DMC1 ΔN (amino-acids 83-340), purified (human, UniProt Q14565 83-340, amine reactive fluorescent dye (Monolith Protein Labelling Kit BLUE-NHS) in the MST only); assay: MST; DMC1 ΔN or loop mutant labelled with BLUE-NHS dye, constant at 150 nM; peptide titrated in 1:1 dilutions starting from 750 µM; 10 mM HEPES pH 8.0, 150 mM NaCl, 0.05 % Tween-20; room temperature (~22 °C); affinities derived from initial fluorescence
T1 construct: human DMC1 with its N-terminal domain deleted, amino acids 83-340; Octameric ring in the crystal and in solution; also called DMC1 core; structural core of human DMC1; source: E. coli BL21 (DE3), purified (Ni-NTA, HiTrap Q, TEV cleavage, HiTrap Q, SEC)
T1 sequence (looked up): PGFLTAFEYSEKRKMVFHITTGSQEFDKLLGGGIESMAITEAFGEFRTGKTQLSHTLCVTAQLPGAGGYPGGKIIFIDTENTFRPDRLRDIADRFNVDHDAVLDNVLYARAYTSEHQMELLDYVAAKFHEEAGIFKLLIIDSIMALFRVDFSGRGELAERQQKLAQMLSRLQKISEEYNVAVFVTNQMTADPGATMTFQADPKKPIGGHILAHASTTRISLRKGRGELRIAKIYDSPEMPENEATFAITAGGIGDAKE

DMC1 ΔN = target: T2, DMC1 ΔN (Homo sapiens, UniProt Q14565); assay: Microscale thermophoresis (MST), BRCA2 peptides and DMC1 ΔN; type: binding; details: MST from initial fluorescence; labelled DMC1 ΔN 150 nM; 10 mM HEPES pH 8.0, 150 mM NaCl, 0.05 % Tween-20; ~22 °C; mean, n = 3 independent experiments
T2 construct: DMC1 ΔN (83-340) were cloned into pHAT4; His6 (TEV-cleavable) (N, cleaved yes); made in house; host or cells: E. coli BL21 (DE3)
T2 sequence (Q14565 83-340): T1 sequence (looked up)
Protocol: DMC1 ΔN and DMC1 ΔN loop mutant were labelled in 10 mM HEPES pH 8.0, 150 mM NaCl with an amine reactive fluorescent dye (MonolithTM Protein Labelling Kit BLUE-NHS, Nanotemper GmbH). A serial dilution of titrant (peptide) was prepared in 10 mM HEPES pH 8.0, 150 mM NaCl, 0.05 % Tween-20. The concentration of labelled DMC1 ΔN or DMC1 ΔN loop mutant were constant at 150 nM and the concentration of the interacting peptide was titrated in 1:1 dilutions starting from 750 µM. An equal volume (10 µl) of the serial dilution and of the diluted labelled DMC1 were mixed and loaded in glass capillaries (MonolithTM NT.115 MST Premium Coated Capillaries, Nanotemper GmbH). The initial fluorescence and the thermophoretic mobility were measured on a Monolith NT.115 system (NanoTemper Technologies). The excitation power was 45 % and MST power was 60 % at room temperature (~22 °C). Laser on and off times were set at 5 and 30 seconds, respectively. Data analysis was performed with NT Affinity Analysis software.
As a change in initial fluorescence was detected, SDS denaturation (SD) tests were performed according to the manufacturer’s instructions to determine whether these changes were ligand-induced and whether the data could therefore be used to derive affinity measurements. Briefly, 7 µl of the samples containing the three highest and three lowest concentrations of peptide were mixed with 7 µl of denaturation buffer (4 % SDS, 40 mM DTT). After incubating each for 5 minutes at 95 °C to denature the proteins and subject to brief centrifugation, the samples were loaded onto Premium Coated Capillaries and their initial fluorescence measurements recorded. […] Initial fluorescence readings were used to derive binding affinities.

[2] = target: the molecule itself; assay: SEC-MALS; Superdex 200 Increase 10/300 GL, 20 mM Tris pH 8.0, 150 mM KCl, 2 mM DTT; the loop mutant also by SEC-SAXS

Kd [1]: > 96 µM
Molecule: BRCA2 Ex27 peptide (amino acids 3270-3315) (from UniProt P51587 3270-3315)

Kd (DMC1 ΔN): 35.7 µM
Molecule: RPTKVFVPPFKTKS [Ex14-Tr]

B1: His-DMC1 ΔN V179E mutant (domain or fragment, human, UniProt Q14565 83-340, looked up)
chain: T1 sequence (looked up) with V97E
notes: human DMC1 ΔN (83-340) with V179E, cloned into pHAT4; His tag named on the protein in the pull-down; also called His6-DMC1 mutant; source: E. coli, in lysate (pull-down); purified for SEC-MALS (purification not described)
stoichiometry N [2]: 8

B2: DMC1 ΔN loop mutant, purified (domain or fragment, human, UniProt Q14565 83-340, looked up)
chain: PGFLTAFEYSEKRKMVFHITTGSQEFDKLLGGGIESMAITEAFGEFRTGKTQLSHTLCVTAQLPIDRGGGEGKIIFIDTENTFRPDRLRDIADRFGLSGSDVLDNVLYARAYTSEHQMELLDYVAAKFHEEAGIFKLLIIDSIMALFRVDFSGRGELAERQQKLAQMLSRLQKISEEYNVAVFVTNQMTADPGATMTFQADPKKPIGGHILAHASTTRISLRKGRGELRIAKIYDSPEMPENEATFAITAGGIGDAKE
modifications: amine reactive fluorescent dye (Monolith Protein Labelling Kit BLUE-NHS) in the MST only
notes: The purification of the mutant is not described; probably as for DMC1 ΔN (His6 tag cleaved)
stoichiometry N [2]: 8

Kd ([1]; both partners purified): 36 µM
B3: BRCA2 Ex14-Tr peptide (amino acids 2401-2414) (peptide)
peptide: RPTKVFVPPFKTKS
notes: human BRCA2 Ex14 truncated, amino acids 2401-2414; also called truncated Ex14; source: synthetic peptide (Severn Biotech)

Kd ([1]; both partners purified): ~30 µM
B4: BRCA2 Ex14 (amino acids 2387-2420), purified (peptide, UniProt P51587 2387-2420, looked up)
chain: ATRNEKMRHLITTGRPTKVFVPPFKTKSHFHRVE
notes: human BRCA2 exon 14 PhePP region, amino acids 2387-2420; source: E. coli BL21 (DE3), purified (Ni-NTA, HiTrap Q, TEV cleavage, HiTrap SP, SEC)
